From patent publication US10800847

How the values were obtained:
[1] = biological target: HLA-A*3303 (A33) single antigen on beads (human); assay: Luminex single-antigen regular beads (#7), IVIg 1:8
[2] = biological target: HLA-A*2902 (A29) single antigen on beads (human); assay: as above
[3] = biological target: HLA-A*6801 (A68) single antigen on beads (human); assay: as above
[4] = biological target: HLA-A*3001 (A30) single antigen on beads (human); assay: as above
[5] = biological target: HLA-A*6601 (A66) single antigen on beads (human); assay: as above
[6] = biological target: HLA-A*3402 (A34) single antigen on beads (human); assay: as above
[7] = biological target: HLA-A*3002 (A30) single antigen on beads (human); assay: as above
[8] = biological target: HLA-A*3601 (A36) single antigen on beads (human); assay: as above
[9] = biological target: HLA-A*3301 (A33) single antigen on beads (human); assay: as above
[10] = biological target: HLA-A*3201 (A32) single antigen on beads (human); assay: as above
[11] = biological target: HLA-A*3101 (A31) single antigen on beads (human); assay: as above
[12] = biological target: HLA-A*6602 (A66) single antigen on beads (human); assay: as above
[13] = biological target: HLA-A*3401 (A34) single antigen on beads (human); assay: as above
HLA-B*1301 (B13) (human) = assay: Luminex iBeads (#6), IVIg diluted 1:8
HLA-B*1512 (B76) (human) = assay: Luminex iBeads (#6), IVIg diluted 1:8
HLA-B*1501 (B62) (human) = assay: Luminex iBeads (#6), IVIg diluted 1:8
HLA-B*0702 (B7) (human) = assay: Luminex iBeads (#6), IVIg diluted 1:8
HLA-B*1801 (B18) (human) = assay: Luminex iBeads (#6), IVIg diluted 1:8
HLA-B*1516 (B63) (human) = assay: Luminex iBeads (#6), IVIg diluted 1:8
HLA-B*1402 (B65) (human) = assay: Luminex iBeads (#6), IVIg diluted 1:8
HLA-B*1302 (B13) (human) = assay: Luminex iBeads (#6), IVIg diluted 1:8
HLA-B*1511 (B75) (human) = assay: Luminex iBeads (#6), IVIg diluted 1:8
HLA-B*0801 (B8) (human) = assay: Luminex iBeads (#6), IVIg diluted 1:8
HLA-B*1503 (B72) (human) = assay: Luminex iBeads (#6), IVIg diluted 1:8
HLA-B*1510 (B71) (human) = assay: Luminex iBeads (#6), IVIg diluted 1:8
HLA-B*1502 (B75) (human) = assay: Luminex iBeads (#6), IVIg diluted 1:8
[14] = biological target: HLA-Cw*0303 (Cw9) (human); assay: Luminex, iBead vs regular bead MFI, 1:8
[15] = biological target: HLA-Cw*0801 (Cw8) (human); assay: Luminex, iBead vs regular bead MFI, 1:8
[16] = biological target: HLA-Cw*0501 (Cw5) (human); assay: Luminex, iBead vs regular bead MFI, 1:8
[17] = biological target: HLA-Cw*0102 (Cw1) (human); assay: Luminex, iBead vs regular bead MFI, 1:8
[18] = biological target: HLA-Cw*0401 (Cw4) (human); assay: Luminex, iBead vs regular bead MFI, 1:8
[19] = biological target: HLA-Cw*0302 (Cw10) (human); assay: Luminex, iBead vs regular bead MFI, 1:8
[20] = biological target: Albumin (negative control beads) (human or bovine); assay: Luminex, iBead vs regular bead MFI, 1:8
[21] = biological target: HLA-Cw*1701 (Cw17) (human); assay: Luminex, iBead vs regular bead MFI, 1:8
[22] = biological target: HLA-Cw*1502 (Cw15) (human); assay: Luminex, iBead vs regular bead MFI, 1:8
HLA-B*8201 (B82) (human) = assay: Luminex, iBead vs regular bead MFI, 1:8
[23] = biological target: HLA-Cw*0202 (Cw2) (human); assay: Luminex, iBead vs regular bead MFI, 1:8
[24] = biological target: HLA-A*8001 (A80) single antigen on Luminex beads (human); assay: Luminex single antigen bead assay, regular beads (#7), IVIg 1:8
[25] = biological target: HLA-A*6901 (A69) single antigen on Luminex beads (human); assay: as above
[26] = biological target: HLA-A*7401 (A74) single antigen on Luminex beads (human); assay: as above
[27] = biological target: HLA-A*8001 (A80) single antigen on Luminex beads (human); assay: Luminex single antigen bead assay, iBeads (#6), IVIg 1:8
[28] = biological target: HLA-A*6901 (A69) single antigen on Luminex beads (human); assay: as above
[29] = biological target: HLA-A*6802 (A68) single antigen on Luminex beads (human); assay: as above
[30] = biological target: Serum albumin on negative control beads (HSA/BSA) (human or bovine); assay: Luminex iBeads (#6), IVIg diluted 1:8
HLA-B*1513 (B77) (human) = assay: Luminex iBeads (#6), IVIg diluted 1:8

“IVIg Octagam (Octapharma, Lachen, Switzerland) (antibody)” showed an MFI [1] of 542 MFI, an MFI [2] of 1580 MFI and an MFI [3] of 0 MFI. The MFI [4] was 928 MFI, the MFI [5] was 1700 MFI and the MFI [6] was 0 MFI. The MFI [7] was 533 MFI, the MFI [8] was 778 MFI and the MFI [9] was 1490 MFI. The MFI [10] was 738 MFI, the MFI [11] was 366 MFI and the MFI [12] was 3650 MFI. The MFI [13] was 2880 MFI, the MFI (HLA-B*1301 (B13) (human)) was 52 MFI and the MFI (HLA-B*1512 (B76) (human)) was 1380 MFI. It also gave an MFI (HLA-B*1501 (B62) (human)) of 0 MFI, an MFI (HLA-B*0702 (B7) (human)) of 0 MFI and an MFI (HLA-B*1801 (B18) (human)) of 0 MFI. It also gave an MFI (HLA-B*1516 (B63) (human)) of 880 MFI, an MFI (HLA-B*1402 (B65) (human)) of 0 MFI and an MFI (HLA-B*1302 (B13) (human)) of 0 MFI. The MFI (HLA-B*1511 (B75) (human)) was 1090 MFI, the MFI (HLA-B*0801 (B8) (human)) was 114 MFI and the MFI (HLA-B*1503 (B72) (human)) was 0 MFI. It also gave an MFI (HLA-B*1510 (B71) (human)) of 0 MFI, an MFI (HLA-B*1502 (B75) (human)) of 0 MFI and a Difference % [14] of -64%. For the same substance, the Difference % [15] was -85%, the Difference % [16] was -83% and the Difference % [17] was -77%. It also gave a Difference % [18] of -80%, a Difference % [19] of -79% and a Difference % [20] of -29%. The Difference % [21] was -70%, the Difference % [22] was -95% and the Difference % (HLA-B*8201 (B82) (human)) was -90%. It also gave a Difference % [23] of -80%, an MFI [24] of 2290 MFI and an MFI [25] of 1720 MFI. For the same substance, the MFI [26] was 201 MFI, the MFI [27] was 845 MFI and the MFI [28] was 814 MFI. The MFI [29] was 489 MFI.
IVIg Gamunex-C Lot NKLK1 (antibody) showed an MFI [1] of 179 MFI, an MFI [2] of 820 MFI and an MFI [3] of 0 MFI. The MFI [4] was 1230 MFI, the MFI [5] was 875 MFI and the MFI [6] was 0 MFI. For the same substance, the MFI [7] was 562 MFI, the MFI [8] was 704 MFI and the MFI [9] was 925 MFI. It also gave an MFI [10] of 424 MFI, an MFI [11] of 0 MFI and an MFI [12] of 838 MFI. It also gave an MFI [13] of 2150 MFI, an MFI (HLA-B*1301 (B13) (human)) of 1030 MFI and an MFI [30] of 7800 MFI. The MFI (HLA-B*1512 (B76) (human)) was 1420 MFI, the MFI (HLA-B*1501 (B62) (human)) was 53 MFI and the MFI (HLA-B*0702 (B7) (human)) was 0 MFI. The MFI (HLA-B*1801 (B18) (human)) was 0 MFI, the MFI (HLA-B*1516 (B63) (human)) was 1210 MFI and the MFI (HLA-B*1402 (B65) (human)) was 0 MFI. It also gave an MFI (HLA-B*1302 (B13) (human)) of 0 MFI, an MFI (HLA-B*1511 (B75) (human)) of 1860 MFI and an MFI (HLA-B*0801 (B8) (human)) of 0 MFI. For the same substance, the MFI (HLA-B*1513 (B77) (human)) was 841 MFI, the MFI (HLA-B*1503 (B72) (human)) was 0 MFI and the MFI (HLA-B*1510 (B71) (human)) was 347 MFI. It also gave an MFI (HLA-B*1502 (B75) (human)) of 91 MFI, a Difference % [14] of -45% and a Difference % [15] of -90%. For the same substance, the Difference % [16] was -66%, the Difference % [17] was -75% and the Difference % [18] was -71%. For the same substance, the Difference % [19] was -57%, the Difference % [20] was -24% and the Difference % [21] was -42%. It also gave a Difference % [22] of -68%, a Difference % (HLA-B*8201 (B82) (human)) of -104% and a Difference % [23] of -59%. It also gave an MFI [24] of 1680 MFI, an MFI [25] of 2780 MFI and an MFI [26] of 224 MFI. For the same substance, the MFI [27] was 1190 MFI, the MFI [28] was 2880 MFI and the MFI [29] was 1950 MFI.
